Biological target: T1, hTAFII80δ (human, UniProt P49848 1-677)
T1 construct: Endogenous protein immunoprecipitated from HeLa extracts; also called hTAFII80 delta; δ isoform of hTAFII80
Test: co-immunoprecipitation of endogenous hTAFII80δ complexes from HeLa cells, immunoblot

T1 sequence (P49848 other isoform, or with tags, fused parts or gaps mutant limits assumed): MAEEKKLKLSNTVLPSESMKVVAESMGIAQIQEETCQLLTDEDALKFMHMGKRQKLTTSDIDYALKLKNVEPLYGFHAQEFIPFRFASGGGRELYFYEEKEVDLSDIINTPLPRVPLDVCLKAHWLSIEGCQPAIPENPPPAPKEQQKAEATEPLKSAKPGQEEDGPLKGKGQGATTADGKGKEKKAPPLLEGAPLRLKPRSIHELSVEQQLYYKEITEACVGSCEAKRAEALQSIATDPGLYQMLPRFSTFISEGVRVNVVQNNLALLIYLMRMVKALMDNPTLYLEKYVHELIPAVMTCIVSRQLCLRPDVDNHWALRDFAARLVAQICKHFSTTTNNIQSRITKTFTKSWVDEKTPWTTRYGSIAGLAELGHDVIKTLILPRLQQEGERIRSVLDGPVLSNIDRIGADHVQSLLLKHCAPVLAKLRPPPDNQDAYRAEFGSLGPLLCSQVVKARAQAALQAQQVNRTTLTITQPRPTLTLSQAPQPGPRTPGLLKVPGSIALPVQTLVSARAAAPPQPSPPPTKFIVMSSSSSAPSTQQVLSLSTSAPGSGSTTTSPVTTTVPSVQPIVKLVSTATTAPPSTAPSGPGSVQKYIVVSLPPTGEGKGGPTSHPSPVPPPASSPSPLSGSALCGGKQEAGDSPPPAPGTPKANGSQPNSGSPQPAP

B1: hTAFII31 (other, human, UniProt Q16594 1-264, looked up)
chain: MESGKTASPKSMPKDAQMMAQILKDMGITEYEPRVINQMLEFAFRYVTTILDDAKIYSSHAKKATVDADDVRLAIQCRADQSFTSPPPRDFLLDIARQRNQTPLPLIKPYSGPRLPPDRYCLTAPNYRLKSLQKKASTSAGRITVPRLSVGSVTSRPSTPTLGTPTPQTMSVSTKVGTPMSLTGQRFTVQMPTSQSPAVKASIPATSAVQNVLINPSLIGSKNILITTNMMSSQNTANESSNALKRKREDDDDDDDDDDDYDNL
notes: Baculovirus-produced in SF9 extracts for the pull-down; endogenous in HeLa cells for the co-immunoprecipitation; No tag is stated; also called recombinant hTAFII31; histone H3-like hTAFII31
B1: no binding.
